Changes are numbered by the printed parent chain.

For assay [1], the target named is synthetic gp41 peptide (residues 596-606) with C-terminal amidation (HIV-1 subtype B BaL, UniProt Q6TAP7).
The target of assay [2] is T1, Env of HIV-1 IMC CH505 on infected CEM.NKR_(CCR5) cells (HIV-1 subtype C CH505 (703010505), strain).
T1 construct: source: HIV-1 IMC-infected CEM.NKR_(CCR5) cells, on the cell surface
The assay is described as follows: flow cytometry on cells. To be noted: one partner purified. A general note: Flow cytometry measures light scatter and fluorescence of single cells or particles in a stream.

In assay [3] the target is T2, Env of HIV-1 IMC SF162 on infected CEM.NKR_(CCR5) cells (HIV-1 subtype B SF162, UniProt P19550, strain).
T2 construct: source: HIV-1 IMC-infected CEM.NKR_(CCR5) cells, on the cell surface
The assay is described as follows: flow cytometry on cells. To be noted: one partner purified.

The target of assay [4] is T3, Env of HIV-1 IMC 1086.C on infected CEM.NKR_(CCR5) cells (HIV-1 subtype C 1086.C, UniProt C6G099, strain).
T3 construct: also called HIV-1 1086; source: HIV-1 IMC-infected CEM.NKR_(CCR5) cells, on the cell surface
In words: flow cytometry on cells. The following applies: one partner purified.

The target of assay [5] is RhDH827 IgG1 (rhesusized variant of human DH827) (rhesus macaque (Macaca mulatta)). The assay is described as follows: SPR; imaging SPR (IBIS MX96); IgG immobilised on a carboxymethyldextran sensor (CMD200M) by carbodiimide chemistry with a Continuous Flow Microspotter, printed at 300 and 150 nM; soluble receptor as analyte from 20 uM, 1:3 over 8 points; 5 min association and 5 min dissociation; equilibrium KD (Scrubber 2). The following applies: both partners purified. In general terms: SPR reads the build-up and loss of mass on a sensor chip optically.

Assay [6] deals with Rh7B2 IgG1 (rhesusized variant of human 7B2) (rhesus macaque (Macaca mulatta)). Described as above. The following applies: both partners purified.
Assay [7] has as its target RM JR4 IgG1 (rhesus macaque mAb, C1C2 Cluster A region) (rhesus macaque (Macaca mulatta)). Described as above. The following applies: both partners purified.
Assay [8] deals with RhDH677.3 IgG1 (rhesusized variant of human DH677.3) (rhesus macaque (Macaca mulatta)). The description is as above. To be noted: both partners purified.
In assay [9] the target is T4, Env of SHIV SF162.P3 on infected A66 cells (SHIV SF162.P3 Env (stand-in: parental …, UniProt P19550, strain)).
T4 construct: source: SHIV-infected A66 cells, on the cell surface
The assay is described as follows: flow cytometry on cells. To be noted: one partner purified.

Assay [10] has as its target T5, monomeric full length single chain (FLSC), a covalent dimer of gp120BaL and CD4 (HIV-1 subtype B BaL (gp120); Homo …, UniProt Q6TAP7;P01730).
T5 construct: gp120 of HIV-1 BaL; CD4, domain 1 and 2
The assay is described as follows: SPR; Biacore 3000; IgG immobilized on a protein A chip, antigen flowed over (FLSC 6.25-200 nM; gp41 peptide 6.4-25.6 μM; V2 peptide 12.5-50 μM); 10 mM HEPES pH 7.5, 150 mM NaCl, 0.05% Tween 20, 25 °C; 1:1 Langmuir model. The following applies: both partners purified.

Sequence of RM JR4 IgG1 (rhesus macaque mAb, C1C2 Cluster A region) (rhesus macaque (Macaca mulatta)) (heavy, as listed by the source, chain 1 of 2): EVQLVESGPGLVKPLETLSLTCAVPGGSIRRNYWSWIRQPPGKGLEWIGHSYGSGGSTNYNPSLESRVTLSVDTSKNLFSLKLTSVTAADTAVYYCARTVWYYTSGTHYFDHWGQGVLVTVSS
Sequence of RM JR4 IgG1 (rhesus macaque mAb, C1C2 Cluster A region) (rhesus macaque (Macaca mulatta)) (light, as listed by the source, chain 2 of 2): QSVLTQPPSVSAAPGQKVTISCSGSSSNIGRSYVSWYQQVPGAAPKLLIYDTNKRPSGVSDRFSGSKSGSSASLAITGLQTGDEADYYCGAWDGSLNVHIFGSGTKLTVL

B1: 7B2 (antibody, V domains shown)
VH: QVQLVQSGGGVFKPGGSLRLSCEASGFTFTEYYMTWVRQAPGKGLEWLAYISKNGEYSKYSPSSNGRFTISRDNAKNSVFLQLDRLSADDTAVYYCARADGLTYFSELLQYIFDLWGQGARVTVSS
VL: ETTLTQSPDSLAVSPGERATIHCKSSQTLLYSSNNRHSIAWYQQRPGQPPKLLLYWASMRLSGVPDRFSGSGSGTDFTLTINNLQAEDVAIYYCHQYSSHPPTFGHGTRVELR
Consider B1, for which the binding result in [1] is listed as “binds”.

B2: DH827 (human IgG1) (antibody, V domains shown)
VH: EVQLVESGGGVVQPGRSLRLSCAASGFTFSNCAMHWVRQAPGKGLEWVAVISYHGSNKYYADYVKGRFTISRDNSKSTVYLQMNSPRAEDTAVYYCAKEGGAPSGWALDYWGQGTLVTVSS
VL: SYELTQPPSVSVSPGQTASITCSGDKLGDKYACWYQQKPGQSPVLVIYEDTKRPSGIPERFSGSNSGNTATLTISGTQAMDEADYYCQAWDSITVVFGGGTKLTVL
notes: also called human DH827
For the molecule B2, the binding result in [2], in assay [3] and in assay [4] was “binds” each time.

B3: rhesus macaque FcγRIIIa-1 (I158) (receptor)
chain: EDLPKAVVFLEPQWYRVLEKDSVTLKCQGAYSPEDNSTRWFHNESLISSQTSSYFIAAARVNNSGEYRCQTSLSTLSDPVQLEVHIGWLLLQAPRWVFKEEESIHLRCHSWKNTLLHKVTYLQNGKGRKYFHQNSDFYIPKATLKDSGSYFCRGLIGSKNVSSETVNITITQDLAVSSISSFFPPG
B3: the Kd in [5] is 1300 nM; in assay [6], 1000 nM; in assay [7], 1100 nM; in [8], 1100 nM.

B4: rhesus macaque FcγRIIIa-3 (V158) (receptor)
chain: B3 chain with I156V
modifications: N-glycosylated soluble ectodomain; limits from the UniProt extracellular domain. Mature 158 = precursor 176 (offset 18). Only V158 (against I158 in variant 1) is printed; other allelic differences of
Regarding B4, the Kd in [5] worked out at 1900 nM; in assay [6], 1600 nM; in assay [7], 1600 nM; in [8], 1500 nM.

B5: human FcγRIIa (R131) (receptor)
chain: QAAAPPKAVLKLEPPWINVLQEDSVTLTCQGARSPESDSIQWFHNGNLIPTHTQPSYRFKANNNDSGEYTCQTGQTSLSDPVHLTVLSEWLVLQTPHLEFQEGETIMLRCHSWKDKPLVKVTFFQNGKSQKFSRLDPTFSIPQANHSHSGDYHCTGNIGYTLFSSKPVTITVQVPSMGSSSPMG
With B5, the Kd in [5] is 4600 nM; in assay [6], 2900 nM; in [7] it was 2000 nM; in assay [8], 4600 nM.

B6: RhDH677.3 IgG1 (antibody, V domains shown)
VH: QVQLVQSGAEVKKPGASVKLSCKASGYTFTSYDINWVRQAPGQGLEWMGWMNPKTGNTGYAQKFQGRVTMTRDTSTSTAYMELSSLRSEDTAVYYCATYRIIAAVGYRYFQYWGQGALVTVSS
VL: AIQMTQSPSSLSASVGDKVTITCRASQGFGNYLAWYQQKPGKVPKLLIYAATTLQSEVPSRFSGSGSGTDFTLTISSLQPEDVATYYCQKYNSAPFTFGQGTRLEIK
notes: also called rhesusized DH677.3
Take B6: the binding result in assay [9], in assay [2] and in [3] was “binds” in each case. Further, the “fold change of KD against human DH677.3” value in assay [10] was approximately 8 fold.

B7: Rh7B2 IgG1 (antibody, V domains shown)
VH: EVQLVESGGGLVQPGGSLRLSCAASGFTFTEYYMSWVRQAPGKGLEWVSYISKNGEYSYYADSVKGRFTISRDNAKNSLSLQMSSLRAEDTAVYYCTRADGLTYFSELLQYIFDLWGQGVLVTVSS
VL: DIVMTQSPDSLAVSLGERVTINCKSSQTLLYSSNNRHSIAWYQQKPGQAPKLLIYWASMRLSGVPNRFSGSGSGTDFTLTISGLQAEDVAVYYCHQYSSHPPTFGQGTKVEIK
notes: also called rhesusized 7B2
As for B7, the binding result in assay [9], in assay [2], in assay [3] and in assay [4] was “binds” in each case.

B8: RhDH827 IgG1 (antibody, V domains shown)
VH: EVQLVESGGGLVQPGGSLRLSCAASGFTFSNCAMHWVRQAPGKGLEWVAVISYHGSNKYYADYVKGRFTISRDNSKNMLYLQMNNLKLEDTAVYYCAREGGAPSGWALDYWGQGVLVTVSS
VL: SYELTQSPSVSVSPGQPASITCSGDKLGDKYACWYQQKPGQVPVLVIYEDTKRPSGIPERFSGSNSGNTATLTISGVEAGDEADYYCQAWDSITHVVFGGGTRLTVL
notes: also called rhesusized DH827
B8: the binding result in [9], in assay [2], in assay [3] and in [4] was “binds” in each case.

As usually defined, the Kd is the constant that tells how readily two partners part at equilibrium.

The values above are taken from paper PMC8770954 (Frontiers in Immunology, 2021).
